Test results from paper PMC7250872, “Repression of the lysogenic PR promoter in bacteriophage TP901-1 through binding of a CI-MOR complex to a composite OM-OR operator” (Scientific Reports, 2020).

Key:
[1] = molecular target: MOR (Modulator Of Repression) of bacteriophage TP901-1, wild type, untagged (bacteriophage TP901-1) (UniProt O48504); test: cross-linking; 0.05% glutaraldehyde, room temperature, 0-60 min, 20 mM HEPES pH 7.5, 200 mM NaCl (100 mM salt by p-0027); CI about 20 uM, MOR 4 or 20 uM, alone or together; SDS PAGE, coomassie
[2] = molecular target: the molecule itself; test: as above
[3] = molecular target: T1, CI-NTD89-His6 (CI N-terminal domain 1-80 plus linker 81-89) (bacteriophage TP901-1, UniProt O48503 1-89); test: SEC; Superdex 75 Prep Grad, 20 mM Tris, 100 mM NaCl, pH 7.4; CI-NTD89 and MOR mixed in about 4:1 molar ratio; conditions: both partners purified
T1 construct: CI repressor, lactococcal bacteriophage TP901-1, N-terminal domain (1-80) and flexible linker (81-89); also called CI-NTD_(1-89); source: E. coli BL21 (pET30a(+)), purified (His-Trap, SEC)
T1 sequence (looked up): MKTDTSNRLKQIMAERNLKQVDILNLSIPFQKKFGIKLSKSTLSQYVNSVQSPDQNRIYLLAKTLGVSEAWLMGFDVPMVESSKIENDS

MOR (Modulator Of Repression) of bacteriophage TP901-1, wild type, untagged (from UniProt O48504 1-72) (natural protein)
stoichiometry N [1]: 2

B1: CI repressor of bacteriophage TP901-1, wild type, untagged (natural protein, UniProt O48503 1-180, looked up)
chain: MKTDTSNRLKQIMAERNLKQVDILNLSIPFQKKFGIKLSKSTLSQYVNSVQSPDQNRIYLLAKTLGVSEAWLMGFDVPMVESSKIENDSENIEETITVMKKLEEPRQKVVLDTAKIQLKEQDEQNKVKQIEDYRLSDEYLEEQISKASAYGGGQLNDNDKEFFKRLLKNTLKEKIDKGDL
notes: CI repressor, lactococcal bacteriophage TP901-1; also called native CI repressor; full length CI; source: E. coli AJ159 (cI in expression vector pUHE23-2), in cell extract; also purified (eluted from the DNA pellet with 1 M NaCl; pooled fractions from Superdex gel filtration)
stoichiometry N [2]: 2

B2: MOR (1-72) released from GST-MOR by thrombin (natural protein, bacteriophage TP901-1, UniProt O48504 1-72, looked up)
chain: MSYDYSSLLGKITEKCGTQYNFAIAMGLSERTVSLKLNDKVTWKDDEILKAVHVLELNPQDIPKYFFNAKVH
notes: MOR (Modulator Of Repression), lactococcal bacteriophage TP901-1, residues 1-72; also called cleaved MOR; source: E. coli BL21 (pGEX4-2, GST-MOR), purified (GST-Trap, thrombin cleavage on the column, SEC)
stoichiometry N [3]: 1
